Test results as given in patent US20210388110A1 (published 2021).

Target: T1, soluble human CD3ε chain (human, UniProt P07766 23-126, limits assumed)
T1 construct: the text says soluble human CD3ε chain; also called human CD3 epsilon chain
Experiment: SPR (Biacore)

T1 sequence (P07766 23-126 limits assumed): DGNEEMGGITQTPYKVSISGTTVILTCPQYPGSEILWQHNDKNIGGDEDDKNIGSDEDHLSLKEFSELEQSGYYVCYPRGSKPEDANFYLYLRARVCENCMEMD

Binder | Kd [nM]
TR01H006-E22Hh/none-Hi-Kn010G3/L0000-k0 (antibody, human IgG1, kappa, L234A L235A, N297A, single-arm) heavy: QVQLVESGGGLVQPGRSLRLSCAASGFTFSNAWMHWVRQAPGKGLEWVAQIKAKSQNYATYYAESVKGRFTISRADSKNSIYLQMNSLKTEDTAVYYCRYVHYGAYYGVDIWGQGTTVTVSSASTKGPSVFPLAPSSKSTSGGTAALGCLVKDYFPEPVTVSWNSGALTSGVHTFPAVLQSSGLYSLSSVVTVPSSSLGTQTYICNVNHKPSNTKVDKKVEPKSCDKTHTCPPCPAPEAAGGPSVFLFPPKPKDTLMISRTPEVTCVVVDVSHEDPEVKFNWYVDGVEVHNAKTKPREEQYASTYRVVSVLTVLHQDWLNGKEYKCKVSNKALPAPIEKTISKAKGQPREPQVYTLPPSRCELTKNQVSLSCAVKGFYPSDIAVEWESNGQPENNYKTTPPVLDSDGSFFLVSKLTVDKSRWQQGNVFSCSVMHEALHNHYTQKSLSLSPDYKDDDDK EPKSSDKTHTCPPCPAPELLGGPSVFLFPPKPKDTLMISRTPEVTCVVVDVSHEDPEVKFNWYVDGVEVHNAKTKPREEQYNSTYRVVSVLTVLHQDWLNGKEYKCKVSNKALPAPIEKTISKAKGQPREPQVCTLPPSRDELTKNQVSLWCLVKGFYPSDIAVEWESNGQPENNYKTTPPVLDSDGSFFLYSKLTVDKSRWQQGNVFSCSVMHEALHNRYTQKSLSLSP light: DIVMTQSPLSLPVTPGEPASISCRSSQSLVHSNRNTYLHWYQQKPGQAPRLLIYKVSNRFSGVPDRFSGSGSGTDFTLKISRVEAEDVGVYYCGQGTQVPYTFGQGTKLEIKRTVAAPSVFIFPPSDEQLKSGTASVVCLLNNFYPREAKVQWKVDNALQSGNSQESVTEQDSKDSTYSLSSTLTLSKADYEKHKVYACEVTHQGLSSPVTKSFNRGEC | 23
TR01H015-E22Hh/none-Hi-Kn010G3/L0000-k0 (antibody, human IgG1, kappa, L234A L235A, N297A, single-arm) heavy: QVQLVESGGGLVQPGRSLRLSCAASGFTFSNAWMHWVRQAPGKGLEWVAQIKGKSNNYATYYAESVKGRFTISRADSKNSIYLQMNSLKTEDTAVYYCRYVHYSASYGVDIWGQGTTVTVSSASTKGPSVFPLAPSSKSTSGGTAALGCLVKDYFPEPVTVSWNSGALTSGVHTFPAVLQSSGLYSLSSVVTVPSSSLGTQTYICNVNHKPSNTKVDKKVEPKSCDKTHTCPPCPAPEAAGGPSVFLFPPKPKDTLMISRTPEVTCVVVDVSHEDPEVKFNWYVDGVEVHNAKTKPREEQYASTYRVVSVLTVLHQDWLNGKEYKCKVSNKALPAPIEKTISKAKGQPREPQVYTLPPSRCELTKNQVSLSCAVKGFYPSDIAVEWESNGQPENNYKTTPPVLDSDGSFFLVSKLTVDKSRWQQGNVFSCSVMHEALHNHYTQKSLSLSPDYKDDDDK EPKSSDKTHTCPPCPAPELLGGPSVFLFPPKPKDTLMISRTPEVTCVVVDVSHEDPEVKFNWYVDGVEVHNAKTKPREEQYNSTYRVVSVLTVLHQDWLNGKEYKCKVSNKALPAPIEKTISKAKGQPREPQVCTLPPSRDELTKNQVSLWCLVKGFYPSDIAVEWESNGQPENNYKTTPPVLDSDGSFFLYSKLTVDKSRWQQGNVFSCSVMHEALHNRYTQKSLSLSP light: DIVMTQSPLSLPVTPGEPASISCRSSQSLVHSNRNTYLHWYQQKPGQAPRLLIYKVSNRFSGVPDRFSGSGSGTDFTLKISRVEAEDVGVYYCGQGTQVPYTFGQGTKLEIKRTVAAPSVFIFPPSDEQLKSGTASVVCLLNNFYPREAKVQWKVDNALQSGNSQESVTEQDSKDSTYSLSSTLTLSKADYEKHKVYACEVTHQGLSSPVTKSFNRGEC | 61.3
TR01H013-E22Hh/none-Hi-Kn010G3/L0000-k0 (antibody, human IgG1, kappa, L234A L235A, N297A, single-arm) heavy: QVQLVESGGGLVQPGRSLRLSCAASGFTFSNAWMHWVRQAPGKGLEWVAQIKGKSQNYATYYAESVKGRFTISRADSKNSIYLQMNSLKTEDTAVYYCRYVHYGAYYGVDIWGQGTTVTVSSASTKGPSVFPLAPSSKSTSGGTAALGCLVKDYFPEPVTVSWNSGALTSGVHTFPAVLQSSGLYSLSSVVTVPSSSLGTQTYICNVNHKPSNTKVDKKVEPKSCDKTHTCPPCPAPEAAGGPSVFLFPPKPKDTLMISRTPEVTCVVVDVSHEDPEVKFNWYVDGVEVHNAKTKPREEQYASTYRVVSVLTVLHQDWLNGKEYKCKVSNKALPAPIEKTISKAKGQPREPQVYTLPPSRCELTKNQVSLSCAVKGFYPSDIAVEWESNGQPENNYKTTPPVLDSDGSFFLVSKLTVDKSRWQQGNVFSCSVMHEALHNHYTQKSLSLSPDYKDDDDK EPKSSDKTHTCPPCPAPELLGGPSVFLFPPKPKDTLMISRTPEVTCVVVDVSHEDPEVKFNWYVDGVEVHNAKTKPREEQYNSTYRVVSVLTVLHQDWLNGKEYKCKVSNKALPAPIEKTISKAKGQPREPQVCTLPPSRDELTKNQVSLWCLVKGFYPSDIAVEWESNGQPENNYKTTPPVLDSDGSFFLYSKLTVDKSRWQQGNVFSCSVMHEALHNRYTQKSLSLSP light: DIVMTQSPLSLPVTPGEPASISCRSSQSLVHSNRNTYLHWYQQKPGQAPRLLIYKVSNRFSGVPDRFSGSGSGTDFTLKISRVEAEDVGVYYCGQGTQVPYTFGQGTKLEIKRTVAAPSVFIFPPSDEQLKSGTASVVCLLNNFYPREAKVQWKVDNALQSGNSQESVTEQDSKDSTYSLSSTLTLSKADYEKHKVYACEVTHQGLSSPVTKSFNRGEC | 49.4

The next lines start with the values.

Kd [nM] | Binder
38.7 | TR01H014-E22Hh/none-Hi-Kn010G3/L0000-k0 (antibody, human IgG1, kappa, L234A L235A, N297A, single-arm) heavy: QVQLVESGGGLVQPGRSLRLSCAASGFTFSNAWMHWVRQAPGKGLEWVAQIKGKSNNYATYYAPSVKGRFTISRADSKNSIYLQMNSLKTEDTAVYYCRYVHYGAYYGVDIWGQGTTVTVSSASTKGPSVFPLAPSSKSTSGGTAALGCLVKDYFPEPVTVSWNSGALTSGVHTFPAVLQSSGLYSLSSVVTVPSSSLGTQTYICNVNHKPSNTKVDKKVEPKSCDKTHTCPPCPAPEAAGGPSVFLFPPKPKDTLMISRTPEVTCVVVDVSHEDPEVKFNWYVDGVEVHNAKTKPREEQYASTYRVVSVLTVLHQDWLNGKEYKCKVSNKALPAPIEKTISKAKGQPREPQVYTLPPSRCELTKNQVSLSCAVKGFYPSDIAVEWESNGQPENNYKTTPPVLDSDGSFFLVSKLTVDKSRWQQGNVFSCSVMHEALHNHYTQKSLSLSPDYKDDDDK EPKSSDKTHTCPPCPAPELLGGPSVFLFPPKPKDTLMISRTPEVTCVVVDVSHEDPEVKFNWYVDGVEVHNAKTKPREEQYNSTYRVVSVLTVLHQDWLNGKEYKCKVSNKALPAPIEKTISKAKGQPREPQVCTLPPSRDELTKNQVSLWCLVKGFYPSDIAVEWESNGQPENNYKTTPPVLDSDGSFFLYSKLTVDKSRWQQGNVFSCSVMHEALHNRYTQKSLSLSP light: DIVMTQSPLSLPVTPGEPASISCRSSQSLVHSNRNTYLHWYQQKPGQAPRLLIYKVSNRFSGVPDRFSGSGSGTDFTLKISRVEAEDVGVYYCGQGTQVPYTFGQGTKLEIKRTVAAPSVFIFPPSDEQLKSGTASVVCLLNNFYPREAKVQWKVDNALQSGNSQESVTEQDSKDSTYSLSSTLTLSKADYEKHKVYACEVTHQGLSSPVTKSFNRGEC
7.94 | TR01H012-E22Hh/none-Hi-Kn010G3/L0000-k0 (antibody, human IgG1, kappa, L234A L235A, N297A, single-arm) heavy: QVQLVESGGGLVQPGRSLRLSCAASGFTFSNAWMHWVRQAPGKGLEWVAQIKAKSNNYATYYAESVKGRFTISRADSKNSIYLQMNSLKTEDTAVYYCRYVHYYYSYGVDIWGQGTTVTVSSASTKGPSVFPLAPSSKSTSGGTAALGCLVKDYFPEPVTVSWNSGALTSGVHTFPAVLQSSGLYSLSSVVTVPSSSLGTQTYICNVNHKPSNTKVDKKVEPKSCDKTHTCPPCPAPEAAGGPSVFLFPPKPKDTLMISRTPEVTCVVVDVSHEDPEVKFNWYVDGVEVHNAKTKPREEQYASTYRVVSVLTVLHQDWLNGKEYKCKVSNKALPAPIEKTISKAKGQPREPQVYTLPPSRCELTKNQVSLSCAVKGFYPSDIAVEWESNGQPENNYKTTPPVLDSDGSFFLVSKLTVDKSRWQQGNVFSCSVMHEALHNHYTQKSLSLSPDYKDDDDK EPKSSDKTHTCPPCPAPELLGGPSVFLFPPKPKDTLMISRTPEVTCVVVDVSHEDPEVKFNWYVDGVEVHNAKTKPREEQYNSTYRVVSVLTVLHQDWLNGKEYKCKVSNKALPAPIEKTISKAKGQPREPQVCTLPPSRDELTKNQVSLWCLVKGFYPSDIAVEWESNGQPENNYKTTPPVLDSDGSFFLYSKLTVDKSRWQQGNVFSCSVMHEALHNRYTQKSLSLSP light: DIVMTQSPLSLPVTPGEPASISCRSSQSLVHSNRNTYLHWYQQKPGQAPRLLIYKVSNRFSGVPDRFSGSGSGTDFTLKISRVEAEDVGVYYCGQGTQVPYTFGQGTKLEIKRTVAAPSVFIFPPSDEQLKSGTASVVCLLNNFYPREAKVQWKVDNALQSGNSQESVTEQDSKDSTYSLSSTLTLSKADYEKHKVYACEVTHQGLSSPVTKSFNRGEC
21.7 | TR01H007-E22Hh/none-Hi-Kn010G3/L0000-k0 (antibody, human IgG1, kappa, L234A L235A, N297A, single-arm) heavy: QVQLVESGGGLVQPGRSLRLSCAASGFTFSNAWMHWVRQAPGKGLEWVAQIKSKSNNYATYYAESVKGRFTISRADSKNSIYLQMNSLKTEDTAVYYCRYVHYGAYYGVDIWGQGTTVTVSSASTKGPSVFPLAPSSKSTSGGTAALGCLVKDYFPEPVTVSWNSGALTSGVHTFPAVLQSSGLYSLSSVVTVPSSSLGTQTYICNVNHKPSNTKVDKKVEPKSCDKTHTCPPCPAPEAAGGPSVFLFPPKPKDTLMISRTPEVTCVVVDVSHEDPEVKFNWYVDGVEVHNAKTKPREEQYASTYRVVSVLTVLHQDWLNGKEYKCKVSNKALPAPIEKTISKAKGQPREPQVYTLPPSRCELTKNQVSLSCAVKGFYPSDIAVEWESNGQPENNYKTTPPVLDSDGSFFLVSKLTVDKSRWQQGNVFSCSVMHEALHNHYTQKSLSLSPDYKDDDDK EPKSSDKTHTCPPCPAPELLGGPSVFLFPPKPKDTLMISRTPEVTCVVVDVSHEDPEVKFNWYVDGVEVHNAKTKPREEQYNSTYRVVSVLTVLHQDWLNGKEYKCKVSNKALPAPIEKTISKAKGQPREPQVCTLPPSRDELTKNQVSLWCLVKGFYPSDIAVEWESNGQPENNYKTTPPVLDSDGSFFLYSKLTVDKSRWQQGNVFSCSVMHEALHNRYTQKSLSLSP light: DIVMTQSPLSLPVTPGEPASISCRSSQSLVHSNRNTYLHWYQQKPGQAPRLLIYKVSNRFSGVPDRFSGSGSGTDFTLKISRVEAEDVGVYYCGQGTQVPYTFGQGTKLEIKRTVAAPSVFIFPPSDEQLKSGTASVVCLLNNFYPREAKVQWKVDNALQSGNSQESVTEQDSKDSTYSLSSTLTLSKADYEKHKVYACEVTHQGLSSPVTKSFNRGEC
